Results on 1 substance are retold here after article PMC4888247.

Experiment [1] addresses human S100A8 (human) (UniProt P05109). Description: SEC; 24 ml Superdex 75, 20 mM HEPES pH 7.5, 200 mM NaCl, 5 mM CaCl2 (calcium only, no zinc); sizes from a calibration curve with protein standards.
The target is the same in experiment [2]. In words: crystal structure; crystal form 1, P212121, 2.2 A; Zn2+/Ca2+-bound (3 mM ZnCl2 added); 0.2 M ammonium acetate, 0.1 M Na acetate pH 4.0, 15 % PEG 3350, 0.4 % 2,2,2-trifluoroethanol; eight molecules per asymmetric unit.
Experiment [3] has the same target. Description: crystal structure; crystal form 2, C2221, 2.1 A; Zn2+/Ca2+-bound with a (Zn)2-cacodylate complex; 5 mM ZnCl2, 0.1 M Na cacodylate pH 6.5, 8 % PEG 8000; four molecules per asymmetric unit.

Where “and” joins values, the source holds several entries; their conditions need not be identical. Equal entries are not always repeated.

As for “human S100A8 (from UniProt P05109 2-93) (natural protein)”, the stoichiometry N (as a rule, a count of units in the complex or per binding partner) in experiment [1] is 4 and 2; in experiment [2] it was 4; in experiment [3], 4.
